# Patent US20060286584A1 (University of Texas, published 2006)
# Experiments:
# [1] = tested on: T1, GST-Yki fusion protein (GST with full length Yki)
# T1 sequence: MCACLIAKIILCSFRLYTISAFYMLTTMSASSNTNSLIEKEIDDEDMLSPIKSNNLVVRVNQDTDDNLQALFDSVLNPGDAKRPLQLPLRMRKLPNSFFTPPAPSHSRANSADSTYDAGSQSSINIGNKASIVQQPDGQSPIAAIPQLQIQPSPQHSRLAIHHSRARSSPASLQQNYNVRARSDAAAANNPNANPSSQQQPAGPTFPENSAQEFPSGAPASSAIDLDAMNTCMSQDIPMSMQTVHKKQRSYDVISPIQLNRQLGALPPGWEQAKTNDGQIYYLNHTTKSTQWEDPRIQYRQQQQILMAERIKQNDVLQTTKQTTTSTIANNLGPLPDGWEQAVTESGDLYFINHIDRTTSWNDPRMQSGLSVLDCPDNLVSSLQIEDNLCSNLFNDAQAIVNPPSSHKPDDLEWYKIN
# V5-tagged Wts (Warts) = molecular target: T2, V5-tagged Wts (Warts) (Drosophila, UniProt Q9VA38 1-1; Q9VA38 2-1105); test: co-immunoprecipitation from S2 cells (anti-HA IP, anti-V5 blot)
# T2 construct: Expressed in S2 cells; in the kinase assay it was immunoprecipitated with anti-V5, alone or after co-expression with Hpo-Sav; also called Lats
# T2 sequence: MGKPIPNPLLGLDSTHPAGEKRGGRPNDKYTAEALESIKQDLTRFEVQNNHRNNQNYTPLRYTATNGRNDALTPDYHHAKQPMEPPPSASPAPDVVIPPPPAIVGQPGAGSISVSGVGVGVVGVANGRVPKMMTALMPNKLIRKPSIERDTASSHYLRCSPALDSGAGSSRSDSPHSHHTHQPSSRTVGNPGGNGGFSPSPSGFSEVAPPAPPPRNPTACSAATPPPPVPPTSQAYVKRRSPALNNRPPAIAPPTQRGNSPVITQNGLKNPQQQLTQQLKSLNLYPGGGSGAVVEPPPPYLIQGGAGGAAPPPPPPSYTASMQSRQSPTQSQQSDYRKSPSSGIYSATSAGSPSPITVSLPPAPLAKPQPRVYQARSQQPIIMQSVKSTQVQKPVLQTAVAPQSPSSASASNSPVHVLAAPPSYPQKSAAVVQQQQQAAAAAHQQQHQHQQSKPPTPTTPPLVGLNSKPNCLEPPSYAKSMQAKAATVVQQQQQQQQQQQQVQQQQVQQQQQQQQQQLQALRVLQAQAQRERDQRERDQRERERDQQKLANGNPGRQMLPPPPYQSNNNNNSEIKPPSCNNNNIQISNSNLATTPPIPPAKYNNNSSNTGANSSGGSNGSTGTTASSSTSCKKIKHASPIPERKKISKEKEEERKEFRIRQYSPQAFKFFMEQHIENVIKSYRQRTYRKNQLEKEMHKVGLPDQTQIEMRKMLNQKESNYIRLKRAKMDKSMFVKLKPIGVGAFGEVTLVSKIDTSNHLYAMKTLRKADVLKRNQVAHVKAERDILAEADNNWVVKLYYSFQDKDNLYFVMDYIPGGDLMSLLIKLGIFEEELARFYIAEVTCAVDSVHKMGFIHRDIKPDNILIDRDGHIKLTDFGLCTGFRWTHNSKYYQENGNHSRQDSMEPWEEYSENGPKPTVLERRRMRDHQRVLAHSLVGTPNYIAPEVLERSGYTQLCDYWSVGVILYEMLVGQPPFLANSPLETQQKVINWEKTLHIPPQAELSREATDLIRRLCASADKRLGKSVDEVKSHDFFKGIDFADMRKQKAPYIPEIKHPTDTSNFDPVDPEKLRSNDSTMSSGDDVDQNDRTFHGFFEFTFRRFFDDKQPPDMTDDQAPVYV
# Description: HA-tagged wildtype Yki (Yki, lane 1), a mutant Yki carrying point mutations in the WW domains (Yki^{W292A P295A W361A P364A}, abbreviated as Yki^WM in lane 2), or a truncated Yki containing only the N-terminal half of the protein (Yki^N, lane 3) were co-expressed with V5-tagged Wts. α-HA immunoprecipitates were probed with and α-V5 antibody to detect physical interaction between the Yki variants and Wts. Note that wildtype Yki, but not Yki^WM or Yki^N, could immunoprecipitate Wts.
# HA-tagged Yki was constructed by adding a C-terminal HA epitope ([…]) to Yki using the pAc5.1/V5-HisB vector (Invitrogen). N-terminal V5-tagged Wts was constructed in the same vector by adding a V5 tag ([…]) between the first and second codon of Wts. Point mutations of Yki and Wts were introduced using the QuikChange site-directed mutagenesis kit (Stratagene). Myc-tagged Hpo and Flag-tagged Sav constructs have been described previously (Wu et al., 2003). The pGEX4T-1 vector was used to express a fusion of GST with full length Yki the GST-Yki preparation contained two Yki-related bands, with the upper band migrating at the expected molecular weight. It also contained a contaminating band (FIG. 6C). The Yki-related bands, but not the contaminating band, were diminished by thrombin, which cleaves the GST-Yki fusion at the junction of GST and Yki (data not shown). […]
# [2] = molecular target: T3, GST-Yki fusion protein (GST with full length Yki)
# T3 chain: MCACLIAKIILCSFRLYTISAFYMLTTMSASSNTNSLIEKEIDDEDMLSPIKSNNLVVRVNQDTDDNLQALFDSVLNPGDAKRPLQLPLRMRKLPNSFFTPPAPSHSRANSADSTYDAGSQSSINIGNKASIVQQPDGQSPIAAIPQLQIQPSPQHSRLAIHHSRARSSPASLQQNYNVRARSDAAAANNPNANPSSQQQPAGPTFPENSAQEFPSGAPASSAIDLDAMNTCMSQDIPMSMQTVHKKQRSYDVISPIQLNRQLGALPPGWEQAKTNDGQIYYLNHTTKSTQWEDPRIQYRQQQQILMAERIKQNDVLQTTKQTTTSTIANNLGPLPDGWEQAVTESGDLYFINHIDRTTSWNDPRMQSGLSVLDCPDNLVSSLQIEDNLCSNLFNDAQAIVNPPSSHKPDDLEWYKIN
# [3] = molecular target: GST-Tsc1 fusion (control substrate) [GST: P08515]
# Chain of GST-Tsc1 fusion (control substrate) [GST: P08515] (P08515 whole entry, looked up, the tested form may be a part): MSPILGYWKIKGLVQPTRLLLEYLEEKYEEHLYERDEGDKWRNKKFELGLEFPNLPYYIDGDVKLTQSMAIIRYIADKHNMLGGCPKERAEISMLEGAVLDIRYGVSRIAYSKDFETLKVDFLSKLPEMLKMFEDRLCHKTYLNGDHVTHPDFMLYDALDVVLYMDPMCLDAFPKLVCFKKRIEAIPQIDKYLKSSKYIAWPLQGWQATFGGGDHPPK
molecule,measurement,setting,value
V5-tagged kinase-dead Wts^K743R,"in vitro kinase activity (32P), kinase-dead Wts co-expressed with Hpo-Sav and immunoprecipitated",[1],"a kinase dead mutation of Wts, WtsK^743R, completely abolished the in vitro kinase activity of Wts towards Yki"
"HA-tagged Yki^W292A P295A W361A P364A (other, Expressed in S2 cells; also called Yki^WM; mutant Yki carrying point mutations in the WW domains) MCACLIAKIILCSFRLYTISAFYMLTTMSASSNTNSLIEKEIDDEDMLSPIKSNNLVVRVNQDTDDNLQALFDSVLNPGDAKRPLQLPLRMRKLPNSFFTPPAPSHSRANSADSTYDAGSQSSINIGNKASIVQQPDGQSPIAAIPQLQIQPSPQHSRLAIHHSRARSSPASLQQNYNVRARSDAAAANNPNANPSSQQQPAGPTFPENSAQEFPSGAPASSAIDLDAMNTCMSQDIPMSMQTVHKKQRSYDVISPIQLNRQLGALPPGWEQAKTNDGQIYYLNHTTKSTQAEDARIQYRQQQQILMAERIKQNDVLQTTKQTTTSTIANNLGPLPDGWEQAVTESGDLYFINHIDRTTSANDARMQSGLSVLDCPDNLVSSLQIEDNLCSNLFNDAQAIVNPPSSHKPDDLEWYKINYPYDVPDYA",binding result,V5-tagged Wts (Warts),no binding
V5-tagged Wts (Warts) (protein) MGKPIPNPLLGLDSTHPAGEKRGGRPNDKYTAEALESIKQDLTRFEVQNNHRNNQNYTPLRYTATNGRNDALTPDYHHAKQPMEPPPSASPAPDVVIPPPPAIVGQPGAGSISVSGVGVGVVGVANGRVPKMMTALMPNKLIRKPSIERDTASSHYLRCSPALDSGAGSSRSDSPHSHHTHQPSSRTVGNPGGNGGFSPSPSGFSEVAPPAPPPRNPTACSAATPPPPVPPTSQAYVKRRSPALNNRPPAIAPPTQRGNSPVITQNGLKNPQQQLTQQLKSLNLYPGGGSGAVVEPPPPYLIQGGAGGAAPPPPPPSYTASMQSRQSPTQSQQSDYRKSPSSGIYSATSAGSPSPITVSLPPAPLAKPQPRVYQARSQQPIIMQSVKSTQVQKPVLQTAVAPQSPSSASASNSPVHVLAAPPSYPQKSAAVVQQQQQAAAAAHQQQHQHQQSKPPTPTTPPLVGLNSKPNCLEPPSYAKSMQAKAATVVQQQQQQQQQQQQVQQQQVQQQQQQQQQQLQALRVLQAQAQRERDQRERDQRERERDQQKLANGNPGRQMLPPPPYQSNNNNNSEIKPPSCNNNNIQISNSNLATTPPIPPAKYNNNSSNTGANSSGGSNGSTGTTASSSTSCKKIKHASPIPERKKISKEKEEERKEFRIRQYSPQAFKFFMEQHIENVIKSYRQRTYRKNQLEKEMHKVGLPDQTQIEMRKMLNQKESNYIRLKRAKMDKSMFVKLKPIGVGAFGEVTLVSKIDTSNHLYAMKTLRKADVLKRNQVAHVKAERDILAEADNNWVVKLYYSFQDKDNLYFVMDYIPGGDLMSLLIKLGIFEEELARFYIAEVTCAVDSVHKMGFIHRDIKPDNILIDRDGHIKLTDFGLCTGFRWTHNSKYYQENGNHSRQDSMEPWEEYSENGPKPTVLERRRMRDHQRVLAHSLVGTPNYIAPEVLERSGYTQLCDYWSVGVILYEMLVGQPPFLANSPLETQQKVINWEKTLHIPPQAELSREATDLIRRLCASADKRLGKSVDEVKSHDFFKGIDFADMRKQKAPYIPEIKHPTDTSNFDPVDPEKLRSNDSTMSSGDDVDQNDRTFHGFFEFTFRRFFDDKQPPDMTDDQAPVYV,"in vitro kinase activity (32P), Wts co-expressed with Hpo-Sav and immunoprecipitated",[2],"When co-expressed with Hpo-Sav, however, Wts displayed specific kinase activity towards Yki"
same,"in vitro kinase activity (32P), Wts co-expressed with Hpo-Sav and immunoprecipitated",[3],"Wts displayed specific kinase activity towards Yki (FIG. 6C, lane 2) but not a control substrate (FIG. 6C, lane 4)"
